What was measured:
Activin B = biological target: T1, Activin B (Homo sapiens, UniProt P09529); test: Biacore-based binding assay (surface plasmon resonance), activin B; conditions: SPR 37° C.; compared to ActRIIB-G1Fc / ActRIIB-Fc homodimer
T1 sequence (P09529 293-407): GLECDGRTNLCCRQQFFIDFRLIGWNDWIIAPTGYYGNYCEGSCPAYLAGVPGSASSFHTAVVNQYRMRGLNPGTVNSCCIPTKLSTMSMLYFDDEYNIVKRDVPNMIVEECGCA
Description: (§1) To determine ligand binding profiles of variant ActRIIB-Fc homodimers, a Biacore™-based binding assay was used to compare ligand binding kinetics of certain variant ActRIIB-Fc polypeptides. ActRIIB-Fc polypeptides to be tested were independently captured onto the system using an anti-Fc antibody. Ligands were then injected and allowed to flow over the captured receptor protein. ActRIIB-G1Fc was used as the control polypeptide.
(§2) A Biacore™-based binding assay was used to compare the ligand binding kinetics of an ActRIIB-Fc:ActRIIB(L79E)-Fc heterodimer with those of unmodified ActRIIB-Fc homodimer. Fusion proteins were captured onto the system using an anti-Fc antibody. Ligands were then injected and allowed to flow over the captured receptor protein at 37° C. Results are summarized in the table below, in which ligand off-rates (kd) most indicative of effective ligand traps are denoted in bold.

GDF8 = biological target: T2, GDF8 (Homo sapiens, UniProt O14793); test: Biacore-based binding assay (surface plasmon resonance), GDF8; conditions: SPR 37° C.; compared to ActRIIB-G1Fc / ActRIIB-Fc homodimer
T2 sequence (O14793 267-375): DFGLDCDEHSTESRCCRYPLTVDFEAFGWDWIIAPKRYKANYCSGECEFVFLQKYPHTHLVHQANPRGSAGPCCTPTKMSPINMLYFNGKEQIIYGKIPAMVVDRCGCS
Description: as §1, §2

GDF11 [1] = biological target: T3, GDF11 (Homo sapiens, UniProt O95390); test: Biacore-based binding assay (surface plasmon resonance), GDF11; conditions: SPR 37° C.; compared to ActRIIB-G1Fc / ActRIIB-Fc homodimer
T3 sequence (O95390 299-407): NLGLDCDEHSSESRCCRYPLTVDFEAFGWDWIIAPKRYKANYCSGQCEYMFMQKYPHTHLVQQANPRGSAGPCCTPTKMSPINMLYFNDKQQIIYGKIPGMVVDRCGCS
Description: as §1
as §1, with “protein.” for “protein. ActRIIB-G1Fc was used as the control polypeptide.”
as §2

BMP9 [2] = biological target: T4, BMP9 (Homo sapiens, UniProt Q9UK05); test: Biacore-based binding assay (surface plasmon resonance), BMP9; conditions: SPR 37° C.; for binding to BMP9 compared to unmodified ActRIIB-Fc (in words): compared to ActRIIB-G1Fc / ActRIIB-Fc homodimer; for reduction in affinity for BMP9 compared with reduction in affinity for GDF11 or activin A: FIG. 9, compared to Fc fusion with unmodified ActRIIB extracellular domain
T4 sequence (Q9UK05 320-429): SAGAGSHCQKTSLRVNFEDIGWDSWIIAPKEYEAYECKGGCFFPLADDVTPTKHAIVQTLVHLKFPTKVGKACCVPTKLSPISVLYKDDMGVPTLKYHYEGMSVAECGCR
Description: as §1
as §1, with “protein.” for “protein. ActRIIB-G1Fc was used as the control polypeptide.”
as §2

GDF11 [3] = biological target: T3, GDF11; test: A204 cell-based pGL3(CAGA)12 reporter gene assay, signaling by GDF11; conditions: A204 reporter gene assay
Excerpt: (§3) To determine activity of variant ActRIIB-Fc polypeptides, an A204 cell-based assay was used to compare effects among variant ActRIIB-Fc polypeptides on signaling by activin A, activin B, GDF8, GDF11, BMP9, and BMP10, in comparison to ActRIIB-G1Fc. In brief, this assay uses a human A204 rhabdomyosarcoma cell line (ATCC®: HTB-82™) derived from muscle and the reporter vector pGL3(CAGA)12 (Dennler et al., 1998, EMBO 17: 3091-3100) as well as a Renilla reporter plasmid (pRLCMV) to control for transfection efficiency. The CAGA12 motif is present in TGF-β responsive genes (e.g., PAI-1 gene), so this vector is of general use for ligands that can signal through Smad2/3, including activin A. GDF11, and BMP9.
(§4) On day 1. A204 cells were transferred into one or more 48-well plates. On day 2, these cells were transfected with 10 μg pGL3(CAGA)12 or pGL3(CAGA)12(10 μg)+pRLCMV (1 pg) and Fugene. On day 3, ligands diluted in medium containing 0.1% BSA were preincubated with ActRIIB-Fc polypeptides for 1 hr before addition to cells. Approximately six hour later, the cells were rinsed with PBS and lysed. Cell lysates were analyzed in a luciferase assay to determine the extent of Smad activation.
(§5) This assay was used to screen variant ActRIIB-Fc polypeptides for inhibitory effects on cell signaling by activin A, activin B. GDF8, GDF11. BMP9, and BMP10. Potencies of homodimeric Fc fusion polypeptides incorporating amino acid substitutions in the human ActRIIB extracellular domain were compared with that of an Fc fusion polypeptide comprising unmodified human ActRIIB extracellular domain, ActRIIB-G1Fc. For some variants tested, it was not possible to calculate an accurate IC50, but signs of inhibition in the slope of the curves were detectable. For these variants, an estimate was included of the order of magnitude of the relative IC50, i.e. >10 nM or >100 nM instead of a definite number. Such data points are indicated by a (*) in Table 3 below. For some variants tested, there was no detectable inhibition in the slope of the curves over the concentration range tested, which is indicated by “ND” in Table 4.
as §3, with “A,” for “A, activin B, GDF8,”, “GDF11,” for “GDF11, BMP9,”, “and BMP9.” for “and BMP10, in comparison to ActRIIB-G1Fc.”, “(Dennler el” for “(Dennler et”, “activin A,” for “activin A.”
as §4, with “1, A-204” for “1. A204”, “μg)” for “pg)”
(§6) This assay was used to screen variant ActRIIB-Fc polypeptides for inhibitory effects on cell signaling by activin A, GDF11, and BMP9. Potencies of homodimeric Fc fusion polypeptides incorporating amino acid substitutions in the human ActRIIB extracellular domain were compared with that of an Fc fusion polypeptide comprising unmodified human ActRIIB extracellular domain.

Activin A = biological target: T5, Activin A (Homo sapiens, UniProt P08476); test: A204 cell-based pGL3(CAGA)12 reporter gene assay, signaling by activin A; conditions: A204 reporter gene assay
T5 sequence (P08476 311-426): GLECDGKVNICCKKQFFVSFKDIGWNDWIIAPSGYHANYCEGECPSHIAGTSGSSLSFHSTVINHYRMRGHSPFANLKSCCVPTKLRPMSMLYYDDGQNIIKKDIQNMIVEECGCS
Excerpt: as §3, §4, §5
as §3, with “A,” for “A, activin B, GDF8,”, “GDF11,” for “GDF11, BMP9,”, “and BMP9.” for “and BMP10, in comparison to ActRIIB-G1Fc.”, “(Dennler el” for “(Dennler et”, “activin A,” for “activin A.”
as §4, with “1, A-204” for “1. A204”, “μg)” for “pg)”
as §6

BMP9 [4] = biological target: T4, BMP9; test: A204 cell-based pGL3(CAGA)12 reporter gene assay, signaling by BMP9; conditions: A204 reporter gene assay
Excerpt: as §3, §4, §5
as §3, with “A,” for “A, activin B, GDF8,”, “GDF11,” for “GDF11, BMP9,”, “and BMP9.” for “and BMP10, in comparison to ActRIIB-G1Fc.”, “(Dennler el” for “(Dennler et”, “activin A,” for “activin A.”
as §4, with “1, A-204” for “1. A204”, “μg)” for “pg)”
as §6

GDF11 [5] = biological target: T6, GDF11 (UniProt O95390 299-407); test: cell-based or functional assay
T6 construct: also called Growth and differentiation factor-11; BMP11
T6 sequence (looked up): T3 sequence (O95390 299-407)

BMP9 [6] = biological target: T7, BMP9 (UniProt Q9UK05 320-429); test: cell-based or functional assay
T7 sequence (looked up): T4 sequence (Q9UK05 320-429)

| Substance | affinity for activin B compared to unmodified ActRIIB-Fc (in words) (Activin B) | GDF8 binding compared to unmodified ActRIIB-Fc (in words) (GDF8) | GDF11 binding compared to unmodified ActRIIB-Fc (in words) (GDF11 [1]) | binding to BMP9 compared to unmodified ActRIIB-Fc (in words) (BMP9 [2]) | inhibition of GDF11 compared to fusion polypeptide with unmodified ActRIIB extracellular domain (in words) (GDF11 [3]) | inhibition of activin A compared to fusion polypeptide with unmodified ActRIIB extracellular domain (in words) (Activin A) | inhibition of BMP9 compared to fusion polypeptide with unmodified ActRIIB extracellular domain (in words) (BMP9 [4]) | selectivity of antagonism (activin A and GDF11 over BMP9) compared to unmodified ActRIIB-Fc (BMP9 [4]) | reduction in affinity for BMP9 compared with reduction in affinity for GDF11 or activin A (BMP9 [2]) | IC50 (ng/ml), A204 CAGA12 luciferase reporter assay (GDF11 [5]) | IC50 (ng/ml), A204 CAGA12 luciferase reporter assay (BMP9 [6]) | also measured |
| --- | --- | --- | --- | --- | --- | --- | --- | --- | --- | --- | --- | --- |
| F82I-N83R: homodimeric ActRIIB-G1Fc fusion with F82I and N83R substitutions; mature SEQ ID NO: 278 | relatively high affinity for activin B | significant decrease in GDF8 and GDF11 binding | significant decrease in GDF8 and GDF11 binding | decrease in binding to BMP9 | – | – | – | – | – | – | – | – |
| K55A: homodimeric ActRIIB-G1Fc fusion with K55A substitution; mature SEQ ID NO: 33 | – | – | – | – | essentially undiminished inhibition of activin A and GDF11 | essentially undiminished inhibition of activin A and GDF11 | less potent inhibition of BMP9 | more selective antagonists of activin A and GDF11 | reduce ActRIIB binding affinity for BMP9 more than they reduce ActRIIB affinity for activin A or GDF11 | – | – | reduction in affinity for BMP9 compared with reduction in affinity for GDF11 or activin A (BMP9 [2]; listed as ActRIIB(K55A)-Fc): greater reduction in their affinity for BMP9 than for GDF11 |
| F82K: homodimeric ActRIIB-G1Fc fusion with F82K substitution; mature SEQ ID NO: 42 | – | – | – | – | essentially undiminished inhibition of activin A and GDF11 | essentially undiminished inhibition of activin A and GDF11 | less potent inhibition of BMP9 | more selective antagonists of activin A and GDF11 | reduce ActRIIB binding affinity for BMP9 more than they reduce ActRIIB affinity for activin A or GDF11 | – | – | reduction in affinity for BMP9 compared with reduction in affinity for GDF11 or activin A (BMP9 [2]; listed as ActRIIB(F82K)-Fc): greater reduction in their affinity for BMP9 than for GDF11 |
| F82W/N83A (homodimeric ActRIIB-Fc construct) (Fc fusion) | – | – | – | – | – | – | – | – | – | 389 ng/mL | 40000 ng/mL | – |
| F82K-N83R: homodimeric ActRIIB-G1Fc fusion with F82K and N83R substitutions; mature SEQ ID NO: 332 | relatively high affinity for activin B | significant decrease in GDF8 and GDF11 binding | significant decrease in GDF8 and GDF11 binding | decrease in binding to BMP9 | – | – | – | – | – | – | – | – |
| R40A (homodimeric ActRIIB-Fc construct) (Fc fusion) | – | – | – | – | – | – | – | – | – | 591 ng/mL | 1210 ng/mL | – |
| K55E: homodimeric ActRIIB-G1Fc fusion with K55E substitution; mature SEQ ID NO: 36 | – | – | – | – | essentially undiminished inhibition of activin A and GDF11 | essentially undiminished inhibition of activin A and GDF11 | less potent inhibition of BMP9 | more selective antagonists of activin A and GDF11 | reduce ActRIIB binding affinity for BMP9 more than they reduce ActRIIB affinity for activin A or GDF11 | – | – | reduction in affinity for BMP9 compared with reduction in affinity for GDF11 or activin A (BMP9 [2]; listed as ActRIIB(K55E)-Fc): greater reduction in their affinity for BMP9 than for GDF11 |
| K74R (homodimeric ActRIIB-Fc construct) (Fc fusion) | – | – | – | – | – | – | – | – | – | 45 ng/mL | 165 ng/mL | – |
| F82T-N83R: homodimeric ActRIIB-G1Fc fusion with F82T and N83R substitutions; mature SEQ ID NO: 335 | relatively high affinity for activin B | significant decrease in GDF8 and GDF11 binding | significant decrease in GDF8 and GDF11 binding | decrease in binding to BMP9 | – | – | – | – | – | – | – | – |

Source: patent publication US20240181007A1, “COMPOSITIONS AND METHODS FOR TREATING PULMONARY HYPERTENSION” (Acceleron Pharma Inc., priority 2021, published 2024)
